Data on five molecules can be found in publication doi:10.64898/2025.12.19.695442, “TRIM37 recognizes a bipartite degron to ubiquitinate centrosome substrates” (bioRxiv, 2025).

B1: Cep192 C-terminus fragment (2070-2537 aa), GFP-tagged (domain or fragment, UniProt Q8TEP8-3 2070-2537, looked up)
chain: REFLQPSSKASLESTSDLGASGKHGGNVSLDVLPVKGPQGSPLLSRAARPPLDQLASEEPWTVLPEHLILVAPSPCDMAKTGRFQIVNNSVRLLRFELCWPAHCLTVTPQHGCVAPESKLQILVSPNSSLSTKQSMFPWSGLIYIHCDDGQKKIVKVQIREDLTQVELLTRLTSKPFGILSPVSEPSVSHLVKPMTKPPSTKVEIRNKSITFPTTEPGETSESCLELENHGTTDVKWHLSSLAPPYVKGVDESGDVFRATYAAFRCSPISGLLESHGIQKVSITFLPRGRGDYAQFWDVECHPLKEPHMKHTLRFQLSGQSIEAENEPENACLSTDSLIKIDHLVKPRRQAVSEASARIPEQLDVTARGVYAPEDVYRFRPTSVGESRTLKVNLRNNSFITHSLKFLSPREPFYVKHSKYSLRAQHYINMPVQFKPKSAGKFEALLVIQTDEGKSIAIRLIGEALGKN
notes: Cep192 residues 2070-2537 (ASH6, ASH7, ASH8 and the IDRs between them); also called C-terminal Cep192; Cep192 C-terminal fragment; source: purified (Ni-NTA, gel filtration)
B2: TRIM37 (enzyme, UniProt O94972 1-964, looked up)
chain: MDEQSVESIAEVFRCFICMEKLRDARLCPHCSKLCCFSCIRRWLTEQRAQCPHCRAPLQLRELVNCRWAEEVTQQLDTLQLCSLTKHEENEKDKCENHHEKLSVFCWTCKKCICHQCALWGGMHGGHTFKPLAEIYEQHVTKVNEEVAKLRRRLMELISLVQEVERNVEAVRNAKDERVREIRNAVEMMIARLDTQLKNKLITLMGQKTSLTQETELLESLLQEVEHQLRSCSKSELISKSSEILMMFQQVHRKPMASFVTTPVPPDFTSELVPSYDSATFVLENFSTLRQRADPVYSPPLQVSGLCWRLKVYPDGNGVVRGYYLSVFLELSAGLPETSKYEYRVEMVHQSCNDPTKNIIREFASDFEVGECWGYNRFFRLDLLANEGYLNPQNDTVILRFQVRSPTFFQKSRDQHWYITQLEAAQTSYIQQINNLKERLTIELSRTQKSRDLSPPDNHLSPQNDDALETRAKKSACSDMLLEGGPTTASVREAKEDEEDEEKIQNEDYHHELSDGDLDLDLVYEDEVNQLDGSSSSASSTATSNTEENDIDEETMSGENDVEYNNMELEEGELMEDAAAAGPAGSSHGYVGSSSRISRRTHLCSAATSSLLDIDPLILIHLLDLKDRSSIENLWGLQPRPPASLLQPTASYSRKDKDQRKQQAMWRVPSDLKMLKRLKTQMAEVRCMKTDVKNTLSEIKSSSAASGDMQTSLFSADQAALAACGTENSGRLQDLGMELLAKSSVANCYIRNSTNKKSNSPKPARSSVAGSLSLRRAVDPGENSRSKGDCQTLSEGSPGSSQSGSRHSSPRALIHGSIGDILPKTEDRQCKALDSDAVVVAVFSGLPAVEKRRKMVTLGANAKGGHLEGLQMTDLENNSETGELQPVLPEGASAAPEEGMSSDSDIECDTENEEQEEHTSVGGFHDSFMVMTQPPDEDTHSSFPDGEQIGPEDLSFNTDENSGR
notes: TRIM37, E3 ubiquitin ligase; 459-964; The co-immunoprecipitation methods say only 'TRIM37 (1 ug)', the same amount as the Abcam protein of the ubiquitination assay; also called purified TRIM37; source: bought: Abcam ab269066
B3: TRIM37(C18R) (enzyme, UniProt O94972 1-964, looked up)
chain: B2 chain with C18R
notes: TRIM37 with C18R; cross-links are reported from the N-terminus (a.a. 1-458) and the tail (a.a. 459-964); source: purified

For data set [1], the target named is Centrobin peptide motif (Homo sapiens) (UniProt Q8N137). The settings on record: cited from earlier work.
Data set [2] deals with GFP-Cep192(IDR+ASH8). Briefly: pull-down; supernatant depletion: 30 nM TRIM37 with a range of GFP-Cep192(IDR+ASH8) concentrations and GFP-Trap magnetic particles, 25 mM HEPES pH 7.4, 150 mM KCl, 1 mM DTT, 1 hr at room temperature; unbound TRIM37 in the supernatant by Western blot; one phase association fit.
Data set [3] deals with B2. Briefly: pull-down; purified GFP fusion (1 uM) incubated with TRIM37 (1 ug) 1 hr at 37°C, precipitated with GFP-Trap magnetic particles; washes 150 mM KCl, 25 mM HEPES, 1% glycerol, 0.05% NP-40, last wash 500 mM KCl; Western blot against TRIM37. As to conditions: both partners purified. For orientation: A western blot detects proteins with antibodies after separation by electrophoresis.

The target of data set [4] is T1, full-length Cep192 tagged with GFP (UniProt Q8TEP8-3 1-2537).
T1 construct: Cep192, full length (2537 aa by the printed range 2070-2537); MW with GFP = 307 kDa; also called GFP-Cep192; source: baculovirus-infected SF9 insect cells, purified (Ni-NTA, gel filtration)
Described as above. The settings on record: both partners purified.

Data set [5] concerns the molecule itself. Briefly: cross-linking; XL-MS: 5 uM TRIM37(C18R) and 5 uM IDR+ASH8, 100 nM ZnCl2, 25 mM HEPES, 150 mM KCl pH 7.4, 20 min at 37°C, 1 mM DSSO 5 min; band of the complex cut from SDS-PAGE; calculated FDR <1%.

Substitutions are numbered along the chain they refer to. Names and notes keep the numbering of the source.

Take TRIM37 MATH (from UniProt O94972): the Kd in data set [1] is 14 µM.

The molecule TRIM37 (from UniProt O94972 1-964) returned a Kd in data set [2] of 0.075 µM.

Regarding B1, in data set [3], the binding result was “binds”.

In the case of B2, the binding result in data set [4] is reported as “binds”.

B3: the binding result in data set [5] is recorded as “binds”.

As a reminder, the Kd is the concentration at which binding is half-saturated.
